Target: afTMEM16 scramblase from Aspergillus fumigatus (Aspergillus fumigatus)
Assay: cryo-EM structure; afTMEM16 in MSP1E3 nanodiscs of 3 POPE:1 POPG; three samples: 0.5 mM Ca2+, Ca2+-free (5 mM EDTA), 0.5 mM Ca2+ with 5 mole% C24:0 ceramide; buffer D (150 mM KCl, 50 mM Tris pH 8.0); maps refined in C1 and C2

stoichiometry N: 2
Substance: afTMEM16 scramblase from Aspergillus fumigatus (natural protein)

Source: publication PMC6355197
